Assay results published in patent US20140274782A1, “AFFINITY REAGENTS AND METHODS FOR DETECTION, PURIFICATION, AND PROTEOMIC ANALYSIS OF METHYLATED PROTEINS” (The Board of Trustees of the Leland Stanford Junior …, priority 2013, published 2014).

T1: G9a and GLP (Homo sapiens, UniProt Q96KQ7+Q9H9B1)
T1 sequence (Q96KQ7 2-1210 limits assumed): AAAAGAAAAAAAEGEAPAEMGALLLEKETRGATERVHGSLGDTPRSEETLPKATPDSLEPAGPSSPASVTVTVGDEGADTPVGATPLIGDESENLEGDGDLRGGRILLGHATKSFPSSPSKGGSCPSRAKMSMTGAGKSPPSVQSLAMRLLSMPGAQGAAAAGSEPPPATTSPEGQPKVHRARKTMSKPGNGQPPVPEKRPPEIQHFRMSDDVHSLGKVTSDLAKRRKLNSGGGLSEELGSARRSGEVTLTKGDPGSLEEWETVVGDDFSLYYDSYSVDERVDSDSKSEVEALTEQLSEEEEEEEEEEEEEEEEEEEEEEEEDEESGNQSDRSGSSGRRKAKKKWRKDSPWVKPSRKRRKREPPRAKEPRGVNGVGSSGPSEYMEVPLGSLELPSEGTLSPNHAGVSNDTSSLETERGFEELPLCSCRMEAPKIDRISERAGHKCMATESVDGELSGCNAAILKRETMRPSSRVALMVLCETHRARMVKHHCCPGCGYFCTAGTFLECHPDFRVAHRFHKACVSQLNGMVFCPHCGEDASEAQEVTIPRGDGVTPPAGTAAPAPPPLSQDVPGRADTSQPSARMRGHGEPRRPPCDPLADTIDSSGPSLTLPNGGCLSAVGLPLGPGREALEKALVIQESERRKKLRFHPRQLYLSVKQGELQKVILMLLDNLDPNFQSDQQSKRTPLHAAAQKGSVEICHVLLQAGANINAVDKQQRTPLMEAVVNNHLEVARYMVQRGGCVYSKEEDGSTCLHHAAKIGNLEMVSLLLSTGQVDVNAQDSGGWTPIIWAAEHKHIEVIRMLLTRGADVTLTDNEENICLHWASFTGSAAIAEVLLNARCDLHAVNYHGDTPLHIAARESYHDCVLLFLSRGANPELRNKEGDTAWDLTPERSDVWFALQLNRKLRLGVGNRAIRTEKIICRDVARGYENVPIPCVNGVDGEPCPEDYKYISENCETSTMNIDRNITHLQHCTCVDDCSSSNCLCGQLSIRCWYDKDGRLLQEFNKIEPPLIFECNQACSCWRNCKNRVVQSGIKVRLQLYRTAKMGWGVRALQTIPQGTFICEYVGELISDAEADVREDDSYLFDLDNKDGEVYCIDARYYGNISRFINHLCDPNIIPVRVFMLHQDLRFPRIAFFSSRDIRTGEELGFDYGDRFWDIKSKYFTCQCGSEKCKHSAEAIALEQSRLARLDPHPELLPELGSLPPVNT
T1 sequence (Q9H9B1 2-1298 limits assumed): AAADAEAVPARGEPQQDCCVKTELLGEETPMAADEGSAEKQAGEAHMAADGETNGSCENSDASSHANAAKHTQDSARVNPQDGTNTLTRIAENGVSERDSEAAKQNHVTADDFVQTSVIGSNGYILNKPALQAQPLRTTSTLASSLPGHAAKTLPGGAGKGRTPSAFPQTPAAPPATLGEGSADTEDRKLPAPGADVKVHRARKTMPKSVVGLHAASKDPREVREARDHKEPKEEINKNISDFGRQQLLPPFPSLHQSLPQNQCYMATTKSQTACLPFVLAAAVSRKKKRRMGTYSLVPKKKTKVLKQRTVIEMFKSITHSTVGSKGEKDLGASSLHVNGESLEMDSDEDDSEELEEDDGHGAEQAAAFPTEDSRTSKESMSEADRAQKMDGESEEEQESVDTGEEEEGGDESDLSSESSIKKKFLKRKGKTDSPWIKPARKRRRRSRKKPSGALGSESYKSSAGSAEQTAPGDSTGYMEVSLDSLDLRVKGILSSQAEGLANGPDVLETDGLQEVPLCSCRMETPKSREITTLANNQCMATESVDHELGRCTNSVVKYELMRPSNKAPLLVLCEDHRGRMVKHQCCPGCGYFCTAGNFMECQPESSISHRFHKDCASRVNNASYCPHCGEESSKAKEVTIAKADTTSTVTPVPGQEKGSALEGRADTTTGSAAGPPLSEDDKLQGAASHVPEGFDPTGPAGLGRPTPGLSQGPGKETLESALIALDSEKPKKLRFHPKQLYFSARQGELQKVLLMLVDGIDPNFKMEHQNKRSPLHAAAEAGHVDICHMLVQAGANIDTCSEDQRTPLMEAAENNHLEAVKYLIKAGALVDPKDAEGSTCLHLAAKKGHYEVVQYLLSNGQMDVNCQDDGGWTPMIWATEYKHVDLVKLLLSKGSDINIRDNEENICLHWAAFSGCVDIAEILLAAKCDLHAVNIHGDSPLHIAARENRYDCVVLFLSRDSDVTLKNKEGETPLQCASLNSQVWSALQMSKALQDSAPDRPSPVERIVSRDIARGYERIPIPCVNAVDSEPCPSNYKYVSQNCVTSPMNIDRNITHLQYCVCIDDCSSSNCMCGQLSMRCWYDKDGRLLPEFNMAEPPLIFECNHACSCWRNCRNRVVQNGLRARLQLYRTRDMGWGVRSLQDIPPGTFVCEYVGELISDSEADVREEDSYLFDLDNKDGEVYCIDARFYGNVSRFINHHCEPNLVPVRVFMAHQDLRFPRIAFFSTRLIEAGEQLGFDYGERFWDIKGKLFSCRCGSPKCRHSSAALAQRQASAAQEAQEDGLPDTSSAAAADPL

B1: ADAR (protein, UniProt P55265 1-1226, looked up)
Double-stranded RNA-specific …: MNPRQGYSLSGYYTHPFQGYEHRQLRYQQPGPGSSPSSFLLKQIEFLKGQLPEAPVIGKQTPSLPPSLPGLRPRFPVLLASSTRGRQVDIRGVPRGVHLRSQGLQRGFQHPSPRGRSLPQRGVDCLSSHFQELSIYQDQEQRILKFLEELGEGKATTAHDLSGKLGTPKKEINRVLYSLAKKGKLQKEAGTPPLWKIAVSTQAWNQHSGVVRPDGHSQGAPNSDPSLEPEDRNSTSVSEDLLEPFIAVSAQAWNQHSGVVRPDSHSQGSPNSDPGLEPEDSNSTSALEDPLEFLDMAEIKEKICDYLFNVSDSSALNLAKNIGLTKARDINAVLIDMERQGDVYRQGTTPPIWHLTDKKRERMQIKRNTNSVPETAPAAIPETKRNAEFLTCNIPTSNASNNMVTTEKVENGQEPVIKLENRQEARPEPARLKPPVHYNGPSKAGYVDFENGQWATDDIPDDLNSIRAAPGEFRAIMEMPSFYSHGLPRCSPYKKLTECQLKNPISGLLEYAQFASQTCEFNMIEQSGPPHEPRFKFQVVINGREFPPAEAGSKKVAKQDAAMKAMTILLEEAKAKDSGKSEESSHYSTEKESEKTAESQTPTPSATSFFSGKSPVTTLLECMHKLGNSCEFRLLSKEGPAHEPKFQYCVAVGAQTFPSVSAPSKKVAKQMAAEEAMKALHGEATNSMASDNQPEGMISESLDNLESMMPNKVRKIGELVRYLNTNPVGGLLEYARSHGFAAEFKLVDQSGPPHEPKFVYQAKVGGRWFPAVCAHSKKQGKQEAADAALRVLIGENEKAERMGFTEVTPVTGASLRRTMLLLSRSPEAQPKTLPLTGSTFHDQIAMLSHRCFNTLTNSFQPSLLGRKILAAIIMKKDSEDMGVVVSLGTGNRCVKGDSLSLKGETVNDCHAEIISRRGFIRFLYSELMKYNSQTAKDSIFEPAKGGEKLQIKKTVSFHLYISTAPCGDGALFDKSCSDRAMESTESRHYPVFENPKQGKLRTKVENGEGTIPVESSDIVPTWDGIRLGERLRTMSCSDKILRWNVLGLQGALLTHFLQPIYLKSVTLGYLFSQGHLTRAICCRVTRDGSAFEDGLRHPFIVNHPKVGRVSIYDSKRQSGKTKETSVNWCLADGYDLEILDGTRGTVDGPRNELSRVSKKNIFLLFKKLCSFRYRRDLLRLSYGEAKKAARDYETAKNYFKKGLKDMGYGNWISKPQEEKNFYLCPV
B2: LIG3 (protein, UniProt P49916 43-1009, looked up)
DNA ligase 3: LLHGHPLFLRRKPVLSFQGSHLRSRATYLVFLPGLHVGLCSGPCEMAEQRFCVDYAKRGTAGCKKCKEKIVKGVCRIGKVVPNPFSESGGDMKEWYHIKCMFEKLERARATTKKIEDLTELEGWEELEDNEKEQITQHIADLSSKAAGTPKKKAVVQAKLTTTGQVTSPVKGASFVTSTNPRKFSGFSAKPNNSGEAPSSPTPKRSLSSSKCDPRHKDCLLREFRKLCAMVADNPSYNTKTQIIQDFLRKGSAGDGFHGDVYLTVKLLLPGVIKTVYNLNDKQIVKLFSRIFNCNPDDMARDLEQGDVSETIRVFFEQSKSFPPAAKSLLTIQEVDEFLLRLSKLTKEDEQQQALQDIASRCTANDLKCIIRLIKHDLKMNSGAKHVLDALDPNAYEAFKASRNLQDVVERVLHNAQEVEKEPGQRRALSVQASLMTPVQPMLAEACKSVEYAMKKCPNGMFSEIKYDGERVQVHKNGDHFSYFSRSLKPVLPHKVAHFKDYIPQAFPGGHSMILDSEVLLIDNKTGKPLPFGTLGVHKKAAFQDANVCLFVFDCIYFNDVSLMDRPLCERRKFLHDNMVEIPNRIMFSEMKRVTKALDLADMITRVIQEGLEGLVLKDVKGTYEPGKRHWLKVKKDYLNEGAMADTADLVVLGAFYGQGSKGGMMSIFLMGCYDPGSQKWCTVTKCAGGHDDATLARLQNELDMVKISKDPSKIPSWLKVNKIYYPDFIVPDPKKAAVWEITGAEFSKSEAHTADGISIRFPRCTRIRDDKDWKSATNLPQLKELYQLSKEKADFTVVAGDEGSSTTGGSSEENKGPSGSAVSRKAPSKPSASTKKAEGKLSNSNSKDGNMQTAKPSAMKVGEKLATKSSPVKVGEKRKAADETLCQTKVLLDIFTGVRLYLPPSTPDFSRLRRYFVAFDGDLVQEFDMTSATHVLGSRDKNPAAQQVSPEWIWACIRKRRLVAPC
B3: HNRNPUL1 (protein, UniProt Q9BUJ2 1-856, looked up)
Heterogeneous nuclear …: MDVRRLKVNELREELQRRGLDTRGLKAELAERLQAALEAEEPDDERELDADDEPGRPGHINEEVETEGGSELEGTAQPPPPGLQPHAEPGGYSGPDGHYAMDNITRQNQFYDTQVIKQENESGYERRPLEMEQQQAYRPEMKTEMKQGAPTSFLPPEASQLKPDRQQFQSRKRPYEENRGRGYFEHREDRRGRSPQPPAEEDEDDFDDTLVAIDTYNCDLHFKVARDRSSGYPLTIEGFAYLWSGARASYGVRRGRVCFEMKINEEISVKHLPSTEPDPHVVRIGWSLDSCSTQLGEEPFSYGYGGTGKKSTNSRFENYGDKFAENDVIGCFADFECGNDVELSFTKNGKWMGIAFRIQKEALGGQALYPHVLVKNCAVEFNFGQRAEPYCSVLPGFTFIQHLPLSERIRGTVGPKSKAECEILMMVGLPAAGKTTWAIKHAASNPSKKYNILGTNAIMDKMRVMGLRRQRNYAGRWDVLIQQATQCLNRLIQIAARKKRNYILDQTNVYGSAQRRKMRPFEGFQRKAIVICPTDEDLKDRTIKRTDEEGKDVPDHAVLEMKANFTLPDVGDFLDEVLFIELQREEADKLVRQYNEEGRKAGPPPEKRFDNRGGGGFRGRGGGGGFQRYENRGPPGGNRGGFQNRGGGSGGGGNYRGGFNRSGGGGYSQNRWGNNNRDNNNSNNRGSYNRAPQQQPPPQQPPPPQPPPQQPPPPPSYSPARNPPGASTYNKNSNIPGSSANTSTPTVSSYSPPQPSYSQPPYNQGGYSQGYTAPPPPPPPPPAYNYGSYGGYNPAPYTPPPPPTAQTYPQPSYNQYQQYAQQWNQYYQNQGQWPPYYGNYDYGSYSGNTQGGTSTQ

How the values were obtained:
G9a and GLP = target: T1, G9a and GLP; experiment: Triple SILAC pull-down after UNC0638 treatment of 293T cells, DMSO/UNC0638 ratio of protein captured by 3×MBT; format: cell-based; set-up: endogenous in cells; host or cells: HEK 293T; conditions: for Relative to UNC0638 UNC Heavy / Relative to UNC0638 UNC Light: SILAC ratio DMSO/UNC0638 of protein pulled down with 3xMBT; for Relative to UNC0638 UNC Heavy: UNC0638 in heavy SILAC media; for Relative to UNC0638 UNC Light: UNC0638 in light SILAC media; for Relative to UNC0638 Average: average of UNC Light and UNC Heavy experiments;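 on all read-outs here: mass spectrometry (Q-Exactive) SILAC quantitation, DMSO/UNC0638 ratio computed after subtracting 3×MBTD355N mutant pull-down background, only proteins with at least twofold 3×MBT over mutant signal considered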
3×MBT domain of L3MBTL1 = experiment: Triple SILAC pull-down, 3xMBT/3xMBTD355N ratio (cytoplasmic, nuclear and chromatin fractions of 293T cells); format: binding, human; conditions: SILAC ratio, pull-down 3xMBT vs 3xMBTD355N; for 3xMBT/D355N UNC Heavy: experiment with UNC0638 in heavy SILAC media; for 3xMBT/D355N UNC Light: experiment with UNC0638 in light SILAC media;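 on all read-outs here: proteins quantified with MaxQuant, requiring at least two unique peptides and quantification in both label directions, normalized to the mean of proteins from a digested loading control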

| Molecule | Relative to UNC0638 UNC Heavy (G9a and GLP) | Relative to UNC0638 UNC Light (G9a and GLP) | Relative to UNC0638 Average (G9a and GLP) | 3xMBT/D355N UNC Heavy (3×MBT domain of L3MBTL1) | 3xMBT/D355N UNC Light (3×MBT domain of L3MBTL1) |
| --- | --- | --- | --- | --- | --- |
| B1 | 0.37 log base 2 | 0.07 log base 2 | 0.22 log base 2 | 2.00 log base 2 | 2.47 log base 2 |
| B2 | 0.26 log base 2 | 0.18 log base 2 | 0.22 log base 2 | 2.43 log base 2 | 2.16 log base 2 |
| B3 | −0.17 log base 2 | 0.61 log base 2 | 0.22 log base 2 | 2.97 log base 2 | 3.07 log base 2 |
